From patent publication US20050130130A1 (INSTITUT NATIONAL DE LA SANTE ET DE LA RECHERCHE MEDICALE …, published 2005)

Biological target: T1, p50.2 KAR (human, UniProt P43631 22-304)
T1 construct: whole, on cells; also called KAR of D.F. NK cells; KAR p50.2
Experiment: anti-CD158 immunoprecipitation from NK cell lysates, immunotransfer with anti-FcεRIγ

T1 sequence (P43631 22-304): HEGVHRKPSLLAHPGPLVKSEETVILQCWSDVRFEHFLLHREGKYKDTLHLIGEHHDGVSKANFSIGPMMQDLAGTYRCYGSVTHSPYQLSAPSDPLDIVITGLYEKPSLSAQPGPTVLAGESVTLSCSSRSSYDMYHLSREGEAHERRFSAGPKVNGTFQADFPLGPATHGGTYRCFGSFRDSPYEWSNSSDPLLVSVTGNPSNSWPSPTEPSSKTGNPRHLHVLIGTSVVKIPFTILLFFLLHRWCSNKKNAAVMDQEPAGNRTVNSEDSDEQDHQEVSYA

- binding result: no binding
B1: FcεRIγ (other, human, UniProt P30273 19-86, looked up)
chain: LGEPQLCYILDAILFLYGIVLTLLYCRLKIQVRKAAITSYEKSDGVYTGLSTRNQETYETLKHEKPPQ
notes: whole, on cells; Endogenous protein in NK cell lysates; also called FcεRI gamma
